These results are taken from patent US5432264A (priority 1987, dated 1995).

Read-outs that look alike come from different tables or passages of the source. Peptide text beside a SMILES is read from it. * marks the point of attachment. Cbz = O=C(OCc1ccccc1)*; CHN2 = [N-]=[N+]=C*

The subject of one assay is poliovirus type 1. The class given is cell-based. Particulars: 24 μg per disc, green monkey kidney cells infected with poliovirus type 1.
The subject of assay [1] is herpes simplex virus type 1 (HSV). It counts as cell-based.
Assay [2] concerns poliovirus (Mahoney strain). It counts as cell-based, poliovirus type 1. Particulars: for effect on poliovirus replication (in words): inhibitor added to cultivation medium; for Virus Yield: poliovirus type 1, multiplicity 1, 48 hrs at 37° C.
The next assay has as its system HSV type 1 (F strain). The class given is cell-based. Particulars: for Virus Yield: 48 hrs at 37° C.
The target in assay [3] is cathepsin B (EC 3.4.22.1). As to the kind of experiment: Equilibrium constant for dissociation of inhibitor-enzyme complex, cathepsin B. It counts as binding. The method, then:
(§1) Biological activity of 3-des-OH-cystatin C was determined through titration against concentration determined papain. The strength of binding 3-des-OH-cystatin on the cystein proteinases papain (EC 3.4.22.2), cathepsin B (EC 3.4.22.1) and dipeptidyl peptidases I (F.C 3.4.14.1) was determined. The equilibrium constant for dissociation of 3-des-OH-cystatinC enzyme complex (0.005 nM, 0.50 nM and 3.1 nM) was within the experimental error limit identical with the equilibrium constant for human cystatin C enzyme complex (<0.005 nM, 0.27 nM and 6.3 nM For papan, cathepsin B and dipeptidyl peptidases I, respectively).

Assay [4] concerns the target dipeptidyl peptidases I (F.C 3.4.14.1). As to the kind of experiment: Equilibrium constant for dissociation of inhibitor-enzyme complex, dipeptidyl peptidase I. The class given is binding. The method, then:
as §1

The subject of another assay is papain. As to the kind of experiment: Papain-inhibiting capacity by titration of active papain, substrate Z-Phe-Arg-NHMec. The conditions noted are these: papain-inhibiting capacity relative to molar cystatin C concentration; range over several preparations. It counts as biochemical. The method, then:
The papain-inhibiting capacity of recombinant 3-des-OH-cystatin C was compared with the corresponding activity of human cystatin C.
The human cystatin C was isolated from urine of patients with mixed glomerular-tubular proteinuria by ultrafiltration, ion-exchange chromatography and gel filtration as described in literature (ref. 2,3) and lyophilized. A total of ten different preparations of human cystatin C and 3-des-OH-cystatin C were tested for their cystein proteinase inhibitory capacity. The cystatin C and 3-des-OH-cystatin C preparations derived from human urine and recombinant technique, respectively, were individually dissolved in 0.15 mol/l ammonium bicarbonate. Cystatin C concentrations of the resulting solutions were determined by phys-ico-chemical and immuno-diffusion and quantitation of amino acids released at hydrolysis in 6 mol/l HCl). The cysteine proteinase inhibiting capacities of these solutions were determined by adding them to a solution of isolated papain (cf. ref. 4), a plant cysteine proteinase widely used as a model for cysteine proteinases in general, and then determining the residual proteolytic activity of the resulting mixtures.
The cysteine proteinase activities of the papain solution and the cystatin C-papain mixtures were determined using the fluorogenic substrate Z-Phe-Arg-NHMec (ref. 5). […]

As for `CC(C)C[C@H](NC(=O)OCc1ccccc1)C(=O)N[C@H](C(=O)NCC(=O)C=[N+]=[N-])C(C)C` [Z-LVG-CHN2, N-benzyloxycarbonyl-leucyl-valyl-glycine diazomethyl ketone, reference compound] (Cbz-Leu-Val-Gly-CHN2), the “inhibition of plaque formation around disc” value in the assay with poliovirus type 1 was “no inhibition of plaque formation”; in assay [1] it was “marked inhibition zones”. Further, in assay [2], the “effect on poliovirus replication (in words)” value is given as “hardly significant”. The “Virus Yield” value in assay [2] (0.4 mM Z-LVG-CHN2 in 1% DMSO) is 4.8 × 10^7 pfu/ml; with HSV type 1 (F strain), 1.4 × 10^3. In addition, in the assay with HSV type 1 (F strain), the “inhibition of HSV replication” value is listed as above 99.9.

B1: 3-des-OH-cystatin C: Recombinant 120 amino acid human cystatin C with non-hydroxylated Pro at position 3, expressed in E. coli (protein, UniProt P01034 27-146, looked up)
Cystatin-C: SSPGKPPRLVGGPMDASVEEEGVRRALDFAVGEYNKASNDMYHSRALQVVRARKQIVAGVNYFLDVELGRTTCTKTQPNLDNCPFHDQPHLKRKAFCSFQIYAVPWQGTMTLSKSTCQDA
modifications: non-hydroxylated Pro3
notes: Recombinant 120 amino acid human cystatin C with non-hydroxylated Pro at position 3, expressed in E. coli
By Kd is commonly meant a measure of binding affinity in units of concentration. For B1, the Kd in assay [3] is 0.5 nM; in assay [4] it was 3.1 nM. The molar inhibitory capacity in the assay on papain was 83-98%. In addition, the “effect on poliovirus replication (in words)” value in assay [2] is given as “no influence on the replication of poliovirus”. Also, the “Virus Yield” value in assay [2] (0.10 mM cystatin C in MEM) is recorded as 1.1 × 10^8 pfu/ml; with HSV type 1 (F strain), 2.4 × 10^3. Further, the “effect on HSV replication (in words)” value in the assay with HSV type 1 (F strain) was “potent inhibitor of HSV replication”.

B2: human cystatin C: Native cystatin C isolated from human urine; mixture of 3-OH-Pro form and 3-des-OH form (protein, UniProt P01034 27-146, looked up)
Cystatin-C: B1 Cystatin-C
Regarding B2, the Kd was 0.27 nM in assay [3] and 6.3 nM in assay [4]. For the same molecule, the molar inhibitory capacity with papain was 5-55%.
